From patent US20090047301A1 come the findings set out here.

Experiment [1] concerns the target HPV16 L2 in HPV16 L1/L2 capsids (pseudovirions, L1/L2 VLPs) (human papillomavirus 16 (HPV16)) (UniProt P03107).
The target in experiment [2] is HPV18 L2 in HPV18 pseudovirions (human papillomavirus 18 (HPV18)) (UniProt P06793).
Experiment [3] has as its target HPV16 L2 in HPV16 L1/L2 capsids (pseudovirions, L1/L2 VLPs) (human papillomavirus 16 (HPV16)) (UniProt P03107). Put plainly: HPV16 L1/L2 VLP ELISA, undiluted hybridoma supernatant. For orientation: In an ELISA, binding on a coated surface is turned into a signal by an enzyme label.
For experiment [4] the target is unchanged. Briefly: HPV16 L1/L2 VLP ELISA.
The target in experiment [5] is full length HPV16 L2 protein (ELISA and Western blot antigen) (human papillomavirus 16 (HPV16)) (UniProt P03107). Put plainly: L2 protein ELISA, undiluted hybridoma supernatant.
Experiment [6] has as its target HPV16 L2 in HPV16 L1/L2 capsids (pseudovirions, L1/L2 VLPs) (human papillomavirus 16 (HPV16)) (UniProt P03107). This is another data set of the same source.

RG-1 (antibody) registered a neutralization of HPV16 pseudovirions, RG-1 ascites (titer (1:x dilution)) in experiment [1] of 205000. The substance further showed a neutralization of HPV18 pseudovirions, RG-1 ascites (titer (1:x dilution)) in experiment [2] of 25600. This substance also yielded an OD405 L1/L2 ELISA in experiment [3] of 0.9 OD405. The substance also returned an ELISA titer (titer (1:x dilution)) in experiment [4] of 1.02e+06. Further, the OD405 L2 ELISA in experiment [5] was 1.3 OD405. In addition, the HPV16 neutralization (undiluted hybridoma supernatant titrated) (titer (1:x dilution)) in experiment [6] was 1280.
